{"source": "paper PMC6784373", "about": "“Development of a Label-Free Electrochemical Aptasensor for the Detection of Tau381 and its Preliminary Application in AD and Non-AD Patients’ Sera”", "target": "tau381 (1N3R as printed) (human, UniProt P10636-4 1-381)", "sequence (P10636 other isoform, or with tags, fused parts or gaps)": "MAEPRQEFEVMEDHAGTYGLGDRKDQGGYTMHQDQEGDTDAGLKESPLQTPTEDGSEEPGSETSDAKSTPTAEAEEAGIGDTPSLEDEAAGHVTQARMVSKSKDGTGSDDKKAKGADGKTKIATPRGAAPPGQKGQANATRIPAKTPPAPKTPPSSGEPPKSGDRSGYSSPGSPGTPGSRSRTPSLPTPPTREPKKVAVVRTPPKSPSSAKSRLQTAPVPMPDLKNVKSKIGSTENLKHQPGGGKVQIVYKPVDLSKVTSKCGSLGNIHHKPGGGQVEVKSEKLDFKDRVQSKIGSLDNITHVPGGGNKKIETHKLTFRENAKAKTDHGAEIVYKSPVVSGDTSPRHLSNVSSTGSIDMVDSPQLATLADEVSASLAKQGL", "test": "electrochemical aptasensor (DPV, EIS); aptamer immobilized on Au NP/thionin/carboxyl graphene GCE; linear 1.0-100 pM, LOD 0.70 pM (sensor values, not Kd); 0.1 M PBS pH 7.0, 5 uM aptamer for immobilization, 30 min tau381 incubation, DPV -0.6 to 0.2 V; EIS in 10 mM [Fe(CN)6]3-/4-; temperature not stated", "details": "protein: commercial", "data": [{"binder": "GCGGAGCGTGGCAGG (ssDNA, 5'-H2N)", "note": "[tau381 aptamer (5'-amino)]", "values": [{"measurement": "binding result", "value": "binds"}]}]}
